Test results: the supplement of paper PMC10724198
± gives the standard deviation of the averaged measurements.

Each sequence was assayed on Saccharomyces cerevisiae (assay: protein stability index of tFT-peptide fusion (C-terminal peptide) (PSI (0-1 scale)); higher = more stable (slower turnover)). Settings: genetic background: cdc53-1; temperature: 37 C.
Experimental: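 MPS profiling in S. cerevisiae of the tFT-X12 degron library: putative degron peptides plus stable controls, 12 aa, fused to the C-terminus of a sfGFP-mCherry timer. Cells are FACS-sorted into 8 mCherry/sfGFP bins and deep-sequenced. PSI runs from 0 (unstable) to 1 (stable). Backgrounds are wild type, das1Δ and doa10Δ at 30 °C, and wild type, das1Δ, cdc34-1 and cdc53-1 at 37 °C; 2-3 technical replicates each.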
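Also: PSI is a weighted mean of sequencing reads over stability bins, variants kept only with over 10 reads, mCherry proximal and sfGFP distal, peptide attached via GGGS linker.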

Going from PPTHDSPVWSPS to PPVAYVCHLYVT, the protein stability index falls from 0.721 ± 0.023 to 0.614 ± 0.029.

First: PPVLAPHLCFPP
Second: PRTTHTPLLIAS
The protein stability index of the first is higher: 0.736 ± 0.0089 for the first, 0.6584 ± 0.003 for the second.

Compared with PSFLAIRVCLLV, PSPRLSLPPRLP is higher in protein stability index: 0.0881 ± 0.02 for the first, 0.729 ± 0.029 for the second.

PSPRRPPRSRFP and PSPYSLSPYFLV are within error of each other in protein stability index: 0.725 ± 0.028 for the first, 0.74 ± 0.011 for the second.

Going from PSRLSFALLFHL to PTAGFFGLLVLV, the protein stability index falls from 0.682 ± 0.017 to 0.402 ± 0.035.

Going from PVHARYCSLKWA to PWGVGLACLFLL, the protein stability index falls from 0.741 ± 0.021 to 0.683 ± 0.016.

Compared with PYPSVIFFLHVY, QIGSMLGVQGVG is lower in protein stability index: 0.572 ± 0.0084 for the first, 0.526 ± 0.013 for the second.

QILVSYSFLYFF and QVVWAVPRICLV are within error of each other in protein stability index: 0.592 ± 0.041 for the first, 0.567 ± 0.0099 for the second.

QWRSWSFATLVT and RCRLYLNVVVLC are within error of each other in protein stability index: 0.321 ± 0.012 for the first, 0.31 ± 0.0054 for the second.

First: RCTFSFSFPFVL
Second: RFCRVERAILLR
The protein stability index of the first is higher: 0.754 ± 0.034 for the first, 0.251 ± 0.0061 for the second.

First: RFFKMREAIRIS
Second: RFPFFLPFIAFL
The protein stability index of the first is higher: 0.5742 ± 0.00075 for the first, 0.539 ± 0.019 for the second.

First: RGCFVLRKTHLL
Second: RGVRALFLLLSF
The protein stability index of the first is higher: 0.715 ± 0.017 for the first, 0.51346 ± 1.4e-05 for the second.

RHAHPLTAQLPL and RHIPSIILAHVV are within error of each other in protein stability index: 0.707 ± 0.024 for the first, 0.67 ± 0.016 for the second.

RICACHGIRFIP and RIFWMFFSQHIG are within error of each other in protein stability index: 0.742 ± 0.0023 for the first, 0.761 ± 0.054 for the second.

Going from RLCLLLCCRLWL to RLFVRIQLSLLF, the protein stability index falls from 0.58 ± 0.013 to 0.351 ± 0.012.

Going from RLICFFSMYLRF to RLLFFVFLSSRF, the protein stability index rises from 0.17 ± 0.064 to 0.268 ± 0.014.

Going from RLRCRVLQWVWG to RLSTTTTKQFIH, the protein stability index rises from 0.693 ± 0.0084 to 0.74 ± 0.013.

First: RMTFFGFTVKML
Second: RNFSFTVICLAM
The protein stability index of the first is higher: 0.7448 ± 0.0058 for the first, 0.62 ± 0.05 for the second.

First: RPCRPLIAAFVF
Second: RQILYYRERFIP
The protein stability index of the first is lower: 0.537 ± 0.022 for the first, 0.715 ± 0.014 for the second.

First: RRIKNRRLKQVT
Second: RRQLVLVLSWVI
The protein stability index of the first is higher: 0.694 ± 0.011 for the first, 0.508 ± 0.018 for the second.

RRQQNHRQLCAT and RRRNQAAHLYSH are within error of each other in protein stability index: 0.708 ± 0.029 for the first, 0.694 ± 0.044 for the second.

First: RSFGGRPWVLFL
Second: RTRVRKTRIRTC
The protein stability index of the first is higher: 0.733 ± 0.023 for the first, 0.6934 ± 0.0022 for the second.

Going from RVFLVLFLILSG to RVIRHLRRISNF, the protein stability index rises from 0.428 ± 0.0072 to 0.745 ± 0.0042.

Compared with RVLSLLGCFVVF, RVLVEIVYFKVF is lower in protein stability index: 0.486 ± 0.013 for the first, 0.395 ± 0.032 for the second.

Going from RVRNSQVVAVVG to RVTEYHTKYKIV, the protein stability index rises from 0.576 ± 0.014 to 0.673 ± 0.076.

First: RWAAAVPLLVVG
Second: RWRYHAYVITIL
The protein stability index of the first is lower: 0.0234 ± 0.0027 for the first, 0.4158 ± 0.0037 for the second.

RYKIEKKKLMNN and SEVMVGLRLTLN are within error of each other in protein stability index: 0.741 ± 0.18 for the first, 0.728 ± 0.018 for the second.

Compared with SFRIWLFRFFFV, SFSFCCLLASFV is lower in protein stability index: 0.669 ± 0.034 for the first, 0.6186 ± 0.006 for the second.

Compared with SFSIPILLLAFP, SFYAGLVVGGVG is higher in protein stability index: 0.2229 ± 0.00014 for the first, 0.616 ± 0.014 for the second.

Going from SGLVAFSVCCRG to SGLVHVLILGAC, the protein stability index rises from 0.449 ± 0.036 to 0.5165 ± 0.0038.

Compared with SGRGFSFVLCTV, SGRKNQRILGLY is higher in protein stability index: 0.599 ± 0.013 for the first, 0.7334 ± 0.0067 for the second.

Going from SLAPPPPLLILR to SLARPGLCFVIA, the protein stability index rises from 0.325 ± 0.015 to 0.583 ± 0.018.

Going from SLASPPPLLILR to SLFFCIPIHSVF, the protein stability index rises from 0.342 ± 0.023 to 0.585 ± 0.0079.

First: SLIVLRSIAVLD
Second: SLRYRFLSFFFL
The protein stability index of the first is lower: 0.505 ± 0.027 for the first, 0.72 ± 0.018 for the second.

Going from SLSFLRPLLLIF to SLTNYQRLIHVC, the protein stability index rises from 0.0385 ± 0.012 to 0.245 ± 0.064.

Compared with SLVLLVASVTGS, SMFFLFFFFFFF is lower in protein stability index: 0.546 ± 0.013 for the first, 0.356 ± 0.018 for the second.

Compared with SNFQLLPLFKNI, SPRGVVIAFLVC is lower in protein stability index: 0.789 ± 0.0083 for the first, 0.569 ± 0.089 for the second.

SQIALIQYFHIL and SQVILFFLSLCR are within error of each other in protein stability index: 0.655 ± 0.017 for the first, 0.654 ± 0.011 for the second.

Going from SRICRTIIQLKQ to SRLVSRLGLYLS, the protein stability index rises from 0.681 ± 0.013 to 0.71 ± 0.0097.

Same assay, conditions: genetic background: das1 deletion; temperature: 30 C

Going from PPTHDSPVWSPS to PPVAYVCHLYVT, the protein stability index falls from 0.672 ± 0.029 to 0.5 ± 0.017.

Going from PPVLAPHLCFPP to PRTTHTPLLIAS, the protein stability index falls from 0.657 ± 0.0043 to 0.54 ± 0.012.

Compared with PSFLAIRVCLLV, PSPRLSLPPRLP is higher in protein stability index: 0.147 ± 0.034 for the first, 0.677 ± 0.016 for the second.

PSPRRPPRSRFP and PSPYSLSPYFLV are within error of each other in protein stability index: 0.653 ± 0.0072 for the first, 0.646 ± 0.013 for the second.

Going from PSRLSFALLFHL to PTAGFFGLLVLV, the protein stability index falls from 0.645 ± 0.018 to 0.294 ± 0.029.

Going from PVHARYCSLKWA to PWGVGLACLFLL, the protein stability index falls from 0.6329 ± 0.0026 to 0.585 ± 0.017.

Compared with PYPSVIFFLHVY, QIGSMLGVQGVG is higher in protein stability index: 0.413 ± 0.029 for the first, 0.461 ± 0.013 for the second.

QILVSYSFLYFF and QVVWAVPRICLV are within error of each other in protein stability index: 0.44 ± 0.03 for the first, 0.438 ± 0.015 for the second.

QWRSWSFATLVT and RCRLYLNVVVLC are within error of each other in protein stability index: 0.266 ± 0.049 for the first, 0.287 ± 0.047 for the second.

Compared with RCTFSFSFPFVL, RFCRVERAILLR is lower in protein stability index: 0.601 ± 0.0084 for the first, 0.33 ± 0.049 for the second.

First: RFFKMREAIRIS
Second: RFPFFLPFIAFL
The protein stability index of the first is lower: 0.392 ± 0.022 for the first, 0.55 ± 0.0097 for the second.

Compared with RGCFVLRKTHLL, RGVRALFLLLSF is lower in protein stability index: 0.645 ± 0.018 for the first, 0.392 ± 0.039 for the second.

First: RHAHPLTAQLPL
Second: RHIPSIILAHVV
The protein stability index of the first is higher: 0.657 ± 0.026 for the first, 0.585 ± 0.033 for the second.

RICACHGIRFIP and RIFWMFFSQHIG are within error of each other in protein stability index: 0.637 ± 0.04 for the first, 0.652 ± 0.019 for the second.

Compared with RLCLLLCCRLWL, RLFVRIQLSLLF is lower in protein stability index: 0.442 ± 0.022 for the first, 0.31 ± 0.025 for the second.

RLICFFSMYLRF and RLLFFVFLSSRF are within error of each other in protein stability index: 0.367 ± 0.058 for the first, 0.33 ± 0.025 for the second.

First: RLRCRVLQWVWG
Second: RLSTTTTKQFIH
The protein stability index of the first is lower: 0.557 ± 0.038 for the first, 0.661 ± 0.045 for the second.

First: RMTFFGFTVKML
Second: RNFSFTVICLAM
The protein stability index of the first is higher: 0.619 ± 0.0095 for the first, 0.485 ± 0.057 for the second.

First: RPCRPLIAAFVF
Second: RQILYYRERFIP
The protein stability index of the first is lower: 0.415 ± 0.045 for the first, 0.634 ± 0.011 for the second.

Going from RRIKNRRLKQVT to RRQLVLVLSWVI, the protein stability index falls from 0.666 ± 0.064 to 0.346 ± 0.027.

RRQQNHRQLCAT and RRRNQAAHLYSH are within error of each other in protein stability index: 0.642 ± 0.028 for the first, 0.67 ± 0.023 for the second.

RSFGGRPWVLFL and RTRVRKTRIRTC are within error of each other in protein stability index: 0.638 ± 0.018 for the first, 0.637 ± 0.018 for the second.

Compared with RVFLVLFLILSG, RVIRHLRRISNF is higher in protein stability index: 0.287 ± 0.031 for the first, 0.661 ± 0.0098 for the second.

First: RVLSLLGCFVVF
Second: RVLVEIVYFKVF
The protein stability index of the first is higher: 0.448 ± 0.028 for the first, 0.256 ± 0.04 for the second.

Compared with RVRNSQVVAVVG, RVTEYHTKYKIV is higher in protein stability index: 0.354 ± 0.038 for the first, 0.656 ± 0.025 for the second.

Compared with RWAAAVPLLVVG, RWRYHAYVITIL is higher in protein stability index: 0.143 ± 0.026 for the first, 0.392 ± 0.02 for the second.

RYKIEKKKLMNN and SEVMVGLRLTLN are within error of each other in protein stability index: 0.602 ± 0.01 for the first, 0.628 ± 0.033 for the second.

SFRIWLFRFFFV and SFSFCCLLASFV are within error of each other in protein stability index: 0.555 ± 0.047 for the first, 0.484 ± 0.028 for the second.

Going from SFSIPILLLAFP to SFYAGLVVGGVG, the protein stability index rises from 0.311 ± 0.022 to 0.508 ± 0.026.

SGLVAFSVCCRG and SGLVHVLILGAC are within error of each other in protein stability index: 0.301 ± 0.039 for the first, 0.347 ± 0.038 for the second.

Going from SGRGFSFVLCTV to SGRKNQRILGLY, the protein stability index rises from 0.339 ± 0.035 to 0.6488 ± 0.0054.

SLAPPPPLLILR and SLARPGLCFVIA are within error of each other in protein stability index: 0.345 ± 0.021 for the first, 0.356 ± 0.029 for the second.

Compared with SLASPPPLLILR, SLFFCIPIHSVF is higher in protein stability index: 0.326 ± 0.032 for the first, 0.491 ± 0.014 for the second.

Compared with SLIVLRSIAVLD, SLRYRFLSFFFL is higher in protein stability index: 0.39 ± 0.02 for the first, 0.636 ± 0.055 for the second.

Compared with SLSFLRPLLLIF, SLTNYQRLIHVC is higher in protein stability index: 0.12 ± 0.028 for the first, 0.223 ± 0.031 for the second.

SLVLLVASVTGS and SMFFLFFFFFFF are within error of each other in protein stability index: 0.385 ± 0.024 for the first, 0.35 ± 0.042 for the second.

Compared with SNFQLLPLFKNI, SPRGVVIAFLVC is lower in protein stability index: 0.651 ± 0.044 for the first, 0.356 ± 0.028 for the second.

First: SQIALIQYFHIL
Second: SQVILFFLSLCR
The protein stability index of the first is higher: 0.594 ± 0.015 for the first, 0.494 ± 0.024 for the second.

SRICRTIIQLKQ and SRLVSRLGLYLS are the same in protein stability index: 0.626 ± 0.029 for the first, 0.626 ± 0.013 for the second.
